From patent publication US20150174265A1 (MIT, published 2015)

B1: E6N2 (Fc fusion)
chain: VSDVPRDLEVVAATPTSLLISWFDYAVTYYRITYGETGGNSPVQEFTVPGWISTATISGLKPGVDYTITVYAVTDNSRWPFRSTPISINYRTEIDKPSQ

Tests used:
[1] = test system: E6N2 (anti-EGFR Fn3 clone E6 - mouse IgG2a Fc - PKR dsRBD) C121V,C135V (Homo sapiens); assay: flow
[2] = biological target: epidermal growth factor receptor (EGFR) on human cancer cell lines (human, UniProt P00533 25-1210)

Molecule	Kd [1] [nM]	binding signal [1] [fold]	Kd [2] [nM]
AllStars Negative Control siRNA, Alexa 488 labeled	3.5	> 100	
B1			~2.1
